Measurements taken from patent US20060229438A1, “Monoclonal antibody derived peptide inhibitors for mycobacterial dna gyrase” (priority 2002, published 2006).
≈ marks a conversion by molar mass, not a printed value.

How the values were obtained:
M. smegmatis DNA gyrase = molecular target: T1, M. smegmatis DNA gyrase (Mycolicibacterium smegmatis, UniProt Q59556); assay: DNA supercoiling assay, M. smegmatis DNA gyrase; assay type: biochemical
T1 construct: made in house

[1] = system: ciprofloxacin resistant M. smegmatis mc^2155 strain; assay: Ciprofloxacin susceptibility (MIC50) of resistant strain; assay type: cell-based; settings: Mycolicibacterium smegmatis
[2] = system: DNA gyrase from ciprofloxacin resistant M. smegmatis mc^2155 strain; assay type: biochemical
[3] = molecular target: T2, M. smegmatis DNA gyrase A subunit (GyrA) (Mycobacterium smegmatis, UniProt P48354 1-842); assay: SPR (BIAcore 2000), M. smegmatis GyrA immobilized on CM5 chip
T2 construct: also called M. smegmatis GyrA
T2 sequence (P48354 whole entry): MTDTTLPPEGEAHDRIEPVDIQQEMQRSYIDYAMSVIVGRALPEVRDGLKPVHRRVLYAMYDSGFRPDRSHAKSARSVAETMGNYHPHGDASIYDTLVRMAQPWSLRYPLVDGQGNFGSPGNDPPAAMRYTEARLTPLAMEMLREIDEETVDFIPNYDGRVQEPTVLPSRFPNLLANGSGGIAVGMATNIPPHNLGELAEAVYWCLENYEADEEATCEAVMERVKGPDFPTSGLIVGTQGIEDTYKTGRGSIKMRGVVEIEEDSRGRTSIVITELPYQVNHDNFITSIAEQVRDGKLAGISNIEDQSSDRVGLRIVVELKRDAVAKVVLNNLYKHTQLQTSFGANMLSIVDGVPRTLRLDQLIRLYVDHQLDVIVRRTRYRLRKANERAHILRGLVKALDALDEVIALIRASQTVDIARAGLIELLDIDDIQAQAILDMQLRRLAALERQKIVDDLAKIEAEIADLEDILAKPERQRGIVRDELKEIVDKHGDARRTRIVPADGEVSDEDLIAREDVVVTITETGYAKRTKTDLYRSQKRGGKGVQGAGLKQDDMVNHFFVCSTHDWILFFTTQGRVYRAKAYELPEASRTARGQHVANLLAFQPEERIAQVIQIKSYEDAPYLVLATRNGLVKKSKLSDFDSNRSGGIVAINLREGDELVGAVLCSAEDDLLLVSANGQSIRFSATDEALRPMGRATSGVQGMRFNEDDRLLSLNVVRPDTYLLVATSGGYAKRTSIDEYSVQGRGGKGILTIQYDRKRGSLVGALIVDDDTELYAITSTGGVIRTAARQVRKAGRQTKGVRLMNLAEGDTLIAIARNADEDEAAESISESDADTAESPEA
Procedure: Binding parameters were determined by Surface Plasmon Resonance (SPR) spectroscopy using a BIAcore 2000 system, Uppsala, Sweden. The over-expressed and purified M. smegmatis GyrA was immobilized on the CM5 sensor chip at a concentration of 400 resonance units (RU) as per manufacturer's instructions. All measurements were carried out in a continuous flow of HBS buffer (10 mM HEPES, 150 mM NaCl, 5 mM EDTA and 0.05 % Surfactant P-20, pH 7.4) at 10 μl/min. […] The kinetic data were analyzed using the BIA evaluation software (Version 3.0). The surface was regenerated by a pulse of 5 μL of 100 mM NaOH for further experimentation as required.

T1 sequence (Q59556 whole entry): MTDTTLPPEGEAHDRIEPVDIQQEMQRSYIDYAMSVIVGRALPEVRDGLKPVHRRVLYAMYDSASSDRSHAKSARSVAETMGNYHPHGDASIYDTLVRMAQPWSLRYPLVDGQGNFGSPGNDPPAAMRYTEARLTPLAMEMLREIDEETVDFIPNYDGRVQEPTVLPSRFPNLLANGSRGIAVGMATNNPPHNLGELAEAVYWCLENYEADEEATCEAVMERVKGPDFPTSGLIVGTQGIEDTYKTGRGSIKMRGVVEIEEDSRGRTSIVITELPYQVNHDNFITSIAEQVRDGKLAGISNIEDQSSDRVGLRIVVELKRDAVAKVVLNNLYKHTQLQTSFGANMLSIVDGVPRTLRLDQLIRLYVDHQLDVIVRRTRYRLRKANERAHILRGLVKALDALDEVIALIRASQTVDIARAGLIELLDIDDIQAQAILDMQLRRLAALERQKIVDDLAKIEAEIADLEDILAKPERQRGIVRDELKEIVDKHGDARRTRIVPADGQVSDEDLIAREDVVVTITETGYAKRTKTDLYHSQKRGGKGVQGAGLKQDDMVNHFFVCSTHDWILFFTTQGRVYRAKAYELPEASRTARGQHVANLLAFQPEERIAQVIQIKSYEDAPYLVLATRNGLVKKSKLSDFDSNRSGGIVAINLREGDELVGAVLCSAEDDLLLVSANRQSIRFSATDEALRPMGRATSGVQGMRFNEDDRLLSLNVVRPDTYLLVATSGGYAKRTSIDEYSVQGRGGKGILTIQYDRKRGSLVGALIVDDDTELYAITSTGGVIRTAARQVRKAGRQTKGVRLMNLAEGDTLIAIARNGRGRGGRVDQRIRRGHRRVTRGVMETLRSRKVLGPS
T1 sequence (P0C559 2-675, further chain): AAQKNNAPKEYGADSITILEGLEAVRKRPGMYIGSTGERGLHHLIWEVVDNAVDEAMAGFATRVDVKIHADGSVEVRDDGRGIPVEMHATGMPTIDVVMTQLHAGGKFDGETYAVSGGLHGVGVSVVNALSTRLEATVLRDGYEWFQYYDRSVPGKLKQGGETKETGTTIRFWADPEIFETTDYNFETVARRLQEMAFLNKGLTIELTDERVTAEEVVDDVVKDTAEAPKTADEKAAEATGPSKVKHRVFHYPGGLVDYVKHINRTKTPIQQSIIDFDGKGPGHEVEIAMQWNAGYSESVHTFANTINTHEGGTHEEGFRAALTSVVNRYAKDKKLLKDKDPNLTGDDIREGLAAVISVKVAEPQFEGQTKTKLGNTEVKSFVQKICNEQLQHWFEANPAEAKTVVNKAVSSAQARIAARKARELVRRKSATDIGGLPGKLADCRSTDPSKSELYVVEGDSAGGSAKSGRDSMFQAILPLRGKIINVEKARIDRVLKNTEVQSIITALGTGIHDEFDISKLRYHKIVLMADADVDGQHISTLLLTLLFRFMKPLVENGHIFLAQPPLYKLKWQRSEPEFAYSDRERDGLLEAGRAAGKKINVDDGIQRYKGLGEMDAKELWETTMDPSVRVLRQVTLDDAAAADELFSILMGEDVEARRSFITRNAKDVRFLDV

## O=C(O)c1cn(C2CC2)c2cc(N3CCNCC3)c(F)cc2c1=O [ciprofloxacin, reference compound]
M. smegmatis DNA gyrase
  IC50: ~15.1 µM
[1]
  MIC50: 64 µg/mL (≈ 193 µM)

## KASGYSFTVYYIYWVK [CDR:H1]
M. smegmatis DNA gyrase; supercoiling activity
  peptide concentration for complete inhibition of enzyme activity: 5 to 10 µM
[2]
  concentration at which DNA supercoiling activity was inhibited: 10 µM

B1: scFv:GyrA, engineered single chain antibody of MsGyrA:C3 (scFv)
scFv: AQVKLQQSGAELVRPGASVKLSCKASGYSFTVYYIYWVKQRPGQALEWIGEINPSNGGTNFNEKFKTKATLTVDKSTSTVYMQLSSLTSEDSAVYYCTRWGLRRGFAYWGQGTTVTVSSSGGGSGGGGSGGGGSDIELTQSPKSMSMSVGERVTLSCKASENVGTHVSWYQQRPEESPKLLIYGASNRYTGVPDRFTGSGSATDFTLTISNVQAEDLADYHCGQTYSYPFTFGLGTKLEIKRAAAGAPVPYPDPLEPRAA
notes: also called ScFV:GyraA; soluble scFv
[3]
  Kd: 0.000217 µM

B2: scFv:GyrA: engineered single chain antibody fragment of MsGyrA:C3, monovalent 30 kDa polypeptide, Seq. ID #2, encoded by pVNUHMscFv (protein)
scFv: B1 scFv
M. smegmatis DNA gyrase
  concentration at which the supercoiling reaction was inhibited: 10 to 20 nM
M. smegmatis DNA gyrase; enzyme preincubated with antibody, relaxed pUC18 DNA
  inhibition of DNA gyrase supercoiling activity: inhibited
[2]
  concentration at which DNA supercoiling activity was inhibited: 0.05 µM
